# From the nanobody polyreactivity screen of Harvey et al. (2022)
# Assay: yeast display, Sf9 membrane polyspecificity reagent, FACS + sequencing; frameworks hold sequencing errors
# Method in brief: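 Synthetic nanobody libraries on Saccharomyces cerevisiae BJ5465 were galactose-induced for 36–48 hours, stained 1 hour at 4 °C with 10% biotinylated, detergent-solubilized Sf9 membrane reagent and enriched on streptavidin microbeads. FACS then separated cells into low and high (top ~1%) gates by anti-HA (expression) and streptavidin (reagent binding) fluorescence. Genes were colony-PCR amplified, MiSeq 2 × 250 sequenced and CDR-length filtered. A clone's polyreactivity label is that of its gate of origin.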
row,Sequence,polyreactivity (PSR sort gate)
1,QVQLVESGGGLVQAGGSLRLSCSASGRTSQWNAMGWYRQAPGKERELVAAISWRTGGTYYADSVKGRFTISRDKAKNTVYLQMNSLQPEDTAVYYCAAGYIGGRPQYWRIGGYWGQGTQVTVSS,high polyreactivity
2,QVQLVESGGGLVQAGGSLRLSCAASGSTFGYYGMGWYRQAPGKETELVAAISTGGRTNYADSVKGRFTISRDNAKNTVYLQMNSLKPEDTAVYYCAADFLSPAYRPSWYRFDYWGLGTQVTVSS,low polyreactivity
3,QVQLEESGGGLVQAGGSLRLSCAASGLTFAYNTMGWYRQAPGKEREFVASISSSGGNTYYADSVKGRFTISRDNAKNTVYLQMNSLKPEDTAVYYCAAKKKYHYVASYKRFEYWGQGTQVTVSS,low polyreactivity
4,QVQLVESGGALVQAGGSLRLSCAASGSTFFHYAMGWYRQAPGKERELVAAIDSNGGSTYYADSVKGRFTISRDNAKNTVYLQMNSLKPEDTAVYYCAADDLAEFEYDYWGQGTQVTVSS,low polyreactivity
5,QVQLVESGGALVQAGGSLRLSCAASGRTFAKYAMGWYRQAPGKERELFAAINSSGGSTYYADSVKGRFTISRDNAKNTVYLQMNSLKPEDTAVYYCADLGIGSYRRYSGYDYWGQGTQVTVSS,low polyreactivity
6,QVQLVESGGGLVQAGGSLRLSCAASGFIFYSNAMGWYRQAPGKDRELVASITGDGGTTYYADSVKGRFTISRDKAKNTVYLQMNSLKPEATAVYYCAKDYIYRGYYTDFRYEDYDYWGPGTQVTVSS,low polyreactivity
7,QVQLVESGGGIVQPGGRLRLSCAASGSILYGYAMGWYRQAPGKERELVAVITSGGSTNYADTVKGRFTISRDNAKNTVYLQMNSLKPEDTAVYYCAADPYSVYGGDYWGQGTQVTVSS,low polyreactivity
8,QVQLVESGGGLVQAGGSLRLSCAASGSTFRGNTMGWYRQAPGKERELVAAISRRGGGTYYADSVKGRFTISRDNAKNTVYLQMNSLKPEDTAVYYCNKRARHTGDFVWGHGYWGQGTQVTVSS,low polyreactivity
9,QVQLVESGGGLVLAGGSLRLSCAASEFIFARNGMGWYIQAPGKERELVAAITKSGSTYADSVKGRFTISRDNAKNTVYLQMNSLKPEDTAVYYCNKDPGNVSSFTGGGYWGQGTQVTVSS,low polyreactivity
10,QVQLVESGGGLVQAGGSLRLSCAASGNTFRLYAMGWYRQAPGKERELVATITSGVSTNYADSVKGRFTISRDNAKNTVYLQMNSLKPEDTAVYYCAARHYYTYSSGFGRYIYTEYYWGQGTQVTVSS,low polyreactivity
11,QVQLVESGGGLVQAGGSLRLSCAASGFTFYLNAMGWYRQAPGKERELVAAITRRGTSTYYADSVKGRFTISRDNAKNTVYLQMNSLKPEDTAVYYCAARPLDYWGQGTQVTVSS,high polyreactivity
12,QVQLVESGGGLVQAGGSRRLSCAASGSIFVKYAMGWYRQAPGKERELVAAISQSGVRTYYADSVKGRFTISRDNAKNTVYLQMNSLKPEDTAVYYSAAYSGYYYWGQGTQVTVSS,high polyreactivity
13,QVQLVESGGGLVQAGGSLRLSCAASGLILYSYAMGWYRQAPGKERELVADISSGGITNYADSVKGRFTISRDNAKNTVYLQMNSLKPEDTAVYYCAADTRPVNYILYDYWGQGTQVTVSS,low polyreactivity
14,QVQLVESRGGLVQAGGSLRLSCAASGSIFLYYARGRSRQSPGKERELVAAIRRGGNTNYADSVKGRFTISRDNAKNTVYLQLNSLKPEDTAVYYCAAAQYSRYSRVPNYYAGTYYYWGQGTQVTVSS,low polyreactivity
15,QVQLVESGGGLVQAGGSLRLSCAASGRIFAYYAMGWYRQAPGKERELVAAISRGGGSTSYADSVKGRFTISRDNAKNTFYLQMNSLKPEDTAVYYCAKDRGYRYLGDYWGQGTQVTVSS,low polyreactivity
16,QVQLVESGGGLVQAGGSLRLSCAASGSIFLRIAMGWYRQAPGKERELVARIRGGGSTYYADSVKGRFTISRDNAKNTVYLQMNSLKPEDTAVYYCAKDYYKYADGYDYWGQGTQVTVSS,high polyreactivity
17,QVQLVESGGGLVQSGGSLRLSCAASGRIFSYYTIGWYRHEPGKEREIVAAITWSGGSTYYADSVKGRFTISRDNAKNTVFLQLNRLKPEDTAVYYCNRVAPHDLRNRQEDNYWGQGTQVTVSS,low polyreactivity
18,QVQLVESGGGLDQAGGSLRLSCAASGSIFRYYVMGWYRQAPGKERELVAAISWSGGTTYYADSVKGRFTISRDNAKNTVYLQMNSLKPEDTAVYYCAAKGPLGYYHATDYHDYWGQGTQVTVSS,high polyreactivity
19,QVQLVESGGGLVQAGGSLRLSCDASGRTFGQNAMGWYRQAPGKERELVAGIDWSCGNTYYADSVKGRFTISRDNAKNTVYLQMNSLKPEDTAVYYCNTEGGRDTDWYDYWGQGTQVTVSS,low polyreactivity
20,QVQLVESGGGLVQAGGSLRLSCAASGSIFTGYAMGWYRQAPGKDRELVAGISWGGTSTYYADSVKGRFTISRDTAKNTVYLQMNSLKPEDTAVYYCSAVRGKYGYLTTPYWFDYWGQGTQVTVSS,high polyreactivity
21,QVQLVESGGGLVQAGGRLRLSCAASGSTFVYNAMGWYRPAPGKERELVAAISRSGGRTYYADSVKGRFTISRDNAKNSVYLQMNSLKPEDTAVYYCAVLLRGIEYDYWGQGTQVTVSS,high polyreactivity
22,QVQLVESGGGLVQAGGSLRLSCAASGSTFAIYAMGWYRQAPGKERELVAAISKSGGSTYYADSVKGRFTISRDNAKNTVYLQMNILKPEDTAVYYCARRQYAFGPYGFYYWGQGTQVTVSS,high polyreactivity

row,Sequence,polyreactivity (PSR sort gate)
1,QVQLVESGGGLVQAGGTLRLSCAASGFIFRKYGMGWYRQAPGKERELVAAIRFTGGSTRYADSVKGRFTISRDNAKNTVYLQMNSLKPEDTAVYYCNADRVYVRGRFTYDYWGQGTQVTVSS,low polyreactivity
2,QVQLVESGGGLVQAGGSLRLSCAASGSTFYYNAMGWYRQAPGKERELVAAINRGGITYYADSVKGRFTISRDNAKNTVYLQMNSLKPEDTAVYYCAASRYPRSYVSYYYWGQGTQVTVSS,high polyreactivity
3,QVQLVESGGGLVQAGGSLRISCAASGRIFYYNVMGWYRQAPGKEWELVASISYSSTRTYYADSVKGRFTISRDNGMNTFYLQMNSLKPEDTAVYYCAVDGYSYYSMDYWGQGTQVTVSS,low polyreactivity
4,QVQLGESGGGLVQAGGSLRLSCAASGSTFAPYAMGWYRQAPGKERELVAAISTGGSTNYADSVKGRFTISRDNAMNTVYFQMNSLKPEDTAVYYCNTGYFVWGFDYWGQGTQVTVSS,low polyreactivity
5,QVQLVESGGGLVQAGASLRLSCAASGRIFSGNAMGWYRQAPGKERELVAAISRGGSTDYADSVKGRFTSSRDNAKNTVYLQMNSLKPEDTAVYYCADRVNGKRRRYDYWGQGTLVTVSS,high polyreactivity
6,QVQLVESGGGLVQAGGRLRLSCAASGRTIDHYAMGWYRQAPGKERELVAAISTTGGSTYYADSVKGRFTISRDNAKNTVYLQMNSLKPEDTAVYYCAARGLRTGGYWGQGTQVTVSS,high polyreactivity
7,QVQLVESGGGLDQAGGSLRLSCAASGSIFYFNAMGWYRQAPGKARELVAAISTSGGSTYADSVKGRFTISRDNAKYTVYLQMNSLKPEDSAVYYFAADYLTSRSRTFDYWGQGTQVTVSS,low polyreactivity
8,QVQLVESGGGLVHAGGSLRLSCAAYGRTYGTNAMGWYRQAPVKERELVAAIRRGGSRTYYADSVKGRFTISRDYAKNTVYLPMNSLKPEDTAVYYCAAKLRAYVDPFEYWGQGTQVTVSS,low polyreactivity
9,QVQLVESGGGLVQAGGSLRLSCAASGRTFAPYAMGWYRQAPGKERELVAAISQRGGSTYYADSVKGRFTISRDNAKNTVYLQMNSLKPEDTAIYYCAATKYFYRLSSAFSFGTYGYWGQGTQVTVSS,low polyreactivity
10,QVQLVESGGGLVQAGGSLRLSCDASGITFVRYTIRWYRQAPGKEREFVAGITRGGSTYYADSVKGRFTISPDNAKNNVFLQRNSLKPEDTAVYYCAARPRFLRASVEYDYWGQGTQVTVSS,high polyreactivity
11,QFQLVESGGGLVQAGGSLSLSCAASGSTLQSYAMGWYRQAPGKERELVAGIRISGGNTRYADSVKGRFTISRDNAKNTVYLQMNSLIPEDTAVYYCAALTGFYNLRPYGYWGQGTQVTVSS,high polyreactivity
12,QVQLVESGGGLVQAGGSLRLSCAASGFIFDDNAMGWSRQAPGKDWELVAASTSGGGSTYYADSVKGRFTISRDNAKNTVYLQMTSLKPEDTAVYYCYAVPSQPDEFDYWGQGTQATVSS,low polyreactivity
13,QVQLVESGGGLVQAGGSLRLSCAASGRISPNNVMGWYRQAPGKERELVAVISRSGDRTNYADSVKGRFTISRDNAKNTVYLQMNSLKPEDTAVYYCAARVVADKYRYDYWGQGTQVTVSS,high polyreactivity
14,QVQLVESGGGLVQAGGSLRLSCAASGIISTYYVMGWYRQAPGKERELVAAITGGGTYYADSVKGRFTISRDNAKNTVYLQMNSLKPEDTAVYYCAVDGTYAYGYSRDYDYWGQGTQVTVSS,low polyreactivity
15,QVQLVESGGGLVQAGGSLRLSCAASGGIVSVYAMGWYRQAPGQERELVASITVSGGSTSYADSVKGRFTISRDNAKNTVYLQMNSLIPEDTAVYYCNTDFGQAHTLSWYEDMDYWGQGTQVTVSS,low polyreactivity
16,EVQLVESGGGLVQPGGSLRLSCAASGYIYSRYRMGWYRQAPGKGREFVAAISGGSSTNYADSVKGRFTISRDNSKYTVYLQMNSLRAEDTAVYYCAAFKIDSDPRVYWGQGTQVTVSS,low polyreactivity
17,QVQLVESGGGLVQAGGSLRLSCAASGRIFYTYAMGWYRPAPGKERELVAAITYRGGSTYYADSVKGRFTISRDNAKNTVYLQMNSLKPEDTAVYYCAGRPGRGPDSRWRYKYDYWGQGTQVTVSS,high polyreactivity
18,QVQLVESGGGLVQAGGSLRLSCAASGFTFDLYAKGWYRQAPGKERELVAVITRGGSTYYADSVKGRFTISRDNAKNTVYLQMNSLKPEDTAVYYCAKYSIIDWWGGEDYWGQGTQVTVSS,high polyreactivity
19,QVQLVESGGGLVQAGGSLRLSCAASGFTFAPYAMGWYRQAPGKERELVAAISSNGGSTYYADSVKGRFTISRDNAKNTVYLQMNSLKPGDTAVYYCAAPVRQSSYNRYDSWGQGTQVTVSS,high polyreactivity
20,QVQLVESGGGLVQAGGSLRLSCAASGSTFATNAMGWYRQAPGKERELVAAIRRGGGTYYADSVKGRFTISRDNAKNTVYLQMNSLKPEDTAVYYCAALYGGRRPYEYWGQGTQVTVSS,high polyreactivity
21,QVQLVESGGGLVQAGGSLRLSCAASGRTFRYYAMGWSRQAPGKERELVASITSGGRTYYADSVKGRFTISRDNAKNTVYLQMNSLKPEDTAVYYCAADTPVTASSPPSDYWGQGTQVTVSS,high polyreactivity
